Patent US20170022287A1
Where a chain is given by its changes, count along the chain named. One block for each binder: values may come before it.

Columns and labels:
[1] = biological target: full-length human CD137-Fc fusion protein (human); test: ELISA, coated CD137-Fc protein 2 µg/mL, antibody 10 or 5 µg/mL, absorbance 620 nm; Non (uncoated well) 0.202
[2] = biological target: full-length human CD137-Fc fusion protein (human); test: ELISA, coated CD137-Fc protein 2 µg/mL, antibody 10 or 5 µg/mL; absorbance 620 nm divided by that of the uncoated well
CRD1-2 [3] = test: ELISA, coated CD137-Fc protein 2 µg/mL, antibody 10 or 5 µg/mL, absorbance 620 nm; Non (uncoated well) 1.146
CRD1-3 [4] = test: as above
CRD3-4 [5] = test: as above
CRD1 [6] = test: as above
CRD2-3 [7] = test: as above
CRD2-4 [8] = test: as above
CRD1-2 [9] = test: ELISA, coated CD137-Fc protein 2 µg/mL, antibody 10 or 5 µg/mL; absorbance 620 nm divided by that of the uncoated well
CRD1-3 [10] = test: as above
CRD3-4 [11] = test: as above
CRD1 [12] = test: as above
CRD2-3 [13] = test: as above
CRD2-4 [14] = test: as above
CRD1-2 [15] = test: ELISA, coated CD137-Fc protein 2 µg/mL, antibody 10 or 5 µg/mL, absorbance 620 nm; Non (uncoated well) 2.2055
CRD1-3 [16] = test: as above
CRD3-4 [17] = test: as above
CRD1 [18] = test: as above
CRD2-3 [19] = test: as above
CRD2-4 [20] = test: as above
CRD1-2 [21] = test: ELISA, coated CD137-Fc protein 2 µg/mL, antibody 10 or 5 µg/mL, absorbance 620 nm; Non (uncoated well) 2.0265
CRD1-3 [22] = test: as above
CRD3-4 [23] = test: as above
CRD1 [24] = test: as above
CRD2-3 [25] = test: as above
CRD2-4 [26] = test: as above
CRD1-3 [27] = test: ELISA, coated CD137-Fc protein 2 µg/mL, antibody 10 or 5 µg/mL, absorbance 620 nm; Non (uncoated well) 1.114
[28] = biological target: full-length human CD137-Fc fusion protein (human); test: as above
CRD3-4 [29] = test: as above
CRD2-3 [30] = test: as above
CRD2-4 [31] = test: as above
CRD1-3 [32] = test: ELISA, coated CD137-Fc protein 2 µg/mL, antibody 10 or 5 µg/mL, absorbance 620 nm; Non (uncoated well) 0.065

CRD1, sequence (chain, as listed by the source limits assumed): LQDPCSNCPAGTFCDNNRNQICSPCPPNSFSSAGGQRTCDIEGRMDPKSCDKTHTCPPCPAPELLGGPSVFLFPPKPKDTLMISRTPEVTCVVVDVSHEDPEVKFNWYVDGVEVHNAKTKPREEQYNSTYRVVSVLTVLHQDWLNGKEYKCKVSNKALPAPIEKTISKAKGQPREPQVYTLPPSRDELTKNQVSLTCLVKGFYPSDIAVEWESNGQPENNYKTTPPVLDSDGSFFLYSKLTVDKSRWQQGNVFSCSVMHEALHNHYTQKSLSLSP
CRD3-4, sequence (chain, as listed by the source limits assumed): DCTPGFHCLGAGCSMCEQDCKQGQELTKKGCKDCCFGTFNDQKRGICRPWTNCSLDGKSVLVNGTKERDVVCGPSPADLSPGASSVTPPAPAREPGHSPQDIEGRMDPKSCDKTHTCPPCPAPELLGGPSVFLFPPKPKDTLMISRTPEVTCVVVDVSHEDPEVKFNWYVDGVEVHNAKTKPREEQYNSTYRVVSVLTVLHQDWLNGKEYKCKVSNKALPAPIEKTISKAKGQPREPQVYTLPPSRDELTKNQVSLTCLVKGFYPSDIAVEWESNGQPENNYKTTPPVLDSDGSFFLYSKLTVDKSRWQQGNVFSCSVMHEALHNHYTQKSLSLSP
CRD1-2, sequence (chain, as listed by the source limits assumed): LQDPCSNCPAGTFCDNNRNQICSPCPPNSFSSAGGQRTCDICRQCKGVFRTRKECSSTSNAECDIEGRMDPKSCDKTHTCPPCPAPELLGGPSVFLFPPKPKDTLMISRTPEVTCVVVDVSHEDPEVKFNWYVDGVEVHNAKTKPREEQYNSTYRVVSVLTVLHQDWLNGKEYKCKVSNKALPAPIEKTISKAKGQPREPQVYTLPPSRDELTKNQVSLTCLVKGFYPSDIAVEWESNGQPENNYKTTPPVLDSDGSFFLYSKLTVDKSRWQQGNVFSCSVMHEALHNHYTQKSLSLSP
CRD2-4, sequence (chain, as listed by the source limits assumed): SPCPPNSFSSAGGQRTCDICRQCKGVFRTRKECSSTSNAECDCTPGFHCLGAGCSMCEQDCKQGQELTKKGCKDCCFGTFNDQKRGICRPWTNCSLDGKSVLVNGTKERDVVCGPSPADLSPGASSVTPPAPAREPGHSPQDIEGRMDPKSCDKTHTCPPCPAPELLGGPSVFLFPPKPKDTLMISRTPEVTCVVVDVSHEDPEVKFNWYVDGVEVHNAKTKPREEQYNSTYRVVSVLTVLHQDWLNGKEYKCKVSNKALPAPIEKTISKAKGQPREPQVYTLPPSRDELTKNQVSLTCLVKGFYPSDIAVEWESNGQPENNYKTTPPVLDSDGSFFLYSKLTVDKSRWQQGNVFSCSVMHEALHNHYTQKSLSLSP
CRD1-3, sequence (chain, as listed by the source limits assumed): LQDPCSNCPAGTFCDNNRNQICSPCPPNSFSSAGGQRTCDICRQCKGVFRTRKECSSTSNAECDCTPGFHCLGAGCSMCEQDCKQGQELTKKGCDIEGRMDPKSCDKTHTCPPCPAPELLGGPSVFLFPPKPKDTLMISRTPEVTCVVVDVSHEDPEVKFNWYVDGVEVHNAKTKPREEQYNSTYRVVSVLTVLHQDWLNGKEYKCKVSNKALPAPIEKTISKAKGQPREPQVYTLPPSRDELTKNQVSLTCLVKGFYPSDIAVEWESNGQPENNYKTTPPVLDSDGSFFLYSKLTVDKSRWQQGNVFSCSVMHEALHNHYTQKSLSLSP
full-length human CD137-Fc fusion protein (human), sequence (chain, as listed by the source limits assumed): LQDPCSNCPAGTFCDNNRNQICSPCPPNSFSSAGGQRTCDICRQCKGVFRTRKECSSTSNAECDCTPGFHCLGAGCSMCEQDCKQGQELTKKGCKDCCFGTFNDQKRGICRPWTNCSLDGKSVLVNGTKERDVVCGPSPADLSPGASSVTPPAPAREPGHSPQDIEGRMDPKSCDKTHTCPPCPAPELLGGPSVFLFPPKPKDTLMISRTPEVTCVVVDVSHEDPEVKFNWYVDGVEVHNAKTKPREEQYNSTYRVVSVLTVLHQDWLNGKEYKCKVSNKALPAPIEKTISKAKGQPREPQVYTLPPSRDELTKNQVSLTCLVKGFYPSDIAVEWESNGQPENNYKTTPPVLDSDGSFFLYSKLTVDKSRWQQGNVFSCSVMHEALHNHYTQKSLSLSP
CRD2-3, sequence (chain, as listed by the source limits assumed): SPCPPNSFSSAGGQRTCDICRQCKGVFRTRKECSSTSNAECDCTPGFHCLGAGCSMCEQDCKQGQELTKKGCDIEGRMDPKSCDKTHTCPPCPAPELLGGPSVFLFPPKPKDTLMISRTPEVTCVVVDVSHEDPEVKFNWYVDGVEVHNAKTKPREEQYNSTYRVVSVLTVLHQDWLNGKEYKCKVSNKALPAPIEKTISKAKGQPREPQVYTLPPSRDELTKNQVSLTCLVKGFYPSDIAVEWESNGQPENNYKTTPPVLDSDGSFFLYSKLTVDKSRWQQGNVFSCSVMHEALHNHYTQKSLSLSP

B1: R2 (antibody, V domains shown)
VH: EVQLQESGPGLVKPSETLSLTCTVSGGSISSSSYYWGWIRQPPGKGLEWIGSIHYTGSTYYNPSLKSRVTISVDTSKNQFSLKLSSVTAADTAVYYCARLNPSIAARPGAFDIWGQGTMVTVSS
VL: QSVLTQPPSVSAAPGQKVTISCSGSSSNIANNFVSWFQQLPGTAPKLLIYDNNKRPSGIPDRFSGSKSGTSATLGITGLQTGDEADYYCGTWDRSLSAGVFGGGTKVTVL
ELISA color development level [1]: 0.205
Ratio with respect to Non-Coating [2]: 1

B2: R13 (antibody, V domains shown)
VH: QVQLVESGGGLVQPGGSLRLSCAASGFTFSYYDIQWVRQAPGKGLEWVSSISPSGQSTYYRREVKGRFTISRDNSKNTLYLQMNSLRAEDTAVYYCARRTGREYGGGWYFDYWGQGTLVTVSS
VL: DIQMTQSPSSLSASVGDRVTITCRASQSISSYLNWYQQKPGKAPKLLIYAASSLQSGVPSRFSGSGSGTDFTLTISSLQPEDFATYYCQQFSRFPLTFGGGTKVEIK
ELISA color development level (CRD1-2 [3]): 0.45
ELISA color development level (CRD1-3 [4]): 0.787
ELISA color development level (CRD3-4 [5]): 0.26
ELISA color development level (CRD1 [6]): 0.601
ELISA color development level (CRD2-3 [7]): 0.555
ELISA color development level (CRD2-4 [8]): 0.455
Ratio with respect to Non-Coating (CRD1-2 [9]): 0.4
Ratio with respect to Non-Coating (CRD1-3 [10]): 0.7
Ratio with respect to Non-Coating (CRD3-4 [11]): 0.2
Ratio with respect to Non-Coating (CRD1 [12]): 0.5
Ratio with respect to Non-Coating (CRD2-3 [13]): 0.5
Ratio with respect to Non-Coating (CRD2-4 [14]): 0.4

B4: R11 (antibody, V domains shown)
VH: QVQLLESGGGLVQPGGSLRLSCAASGFTFSSYAMSWVRQAPGKGLEWVSAISGSGGSTYYADSVKGRFTISRDNSKNTLYLQMNSLRAEDTAVYYCARDKWYYYPALDYWGQGTLVTVSS
VL: B2 VL
ELISA color development level (CRD1-2 [21]): 1.69
ELISA color development level (CRD1-3 [22]): 2.45
ELISA color development level (CRD3-4 [23]): 2.88
ELISA color development level (CRD1 [24]): 1.82
ELISA color development level (CRD2-3 [25]): 2.73
ELISA color development level (CRD2-4 [26]): 2.3
Ratio with respect to Non-Coating (CRD1-2 [9]): 0.8
Ratio with respect to Non-Coating (CRD1-3 [10]): 1.2
Ratio with respect to Non-Coating (CRD3-4 [11]): 1.4
Ratio with respect to Non-Coating (CRD1 [12]): 0.9
Ratio with respect to Non-Coating (CRD2-3 [13]): 1.3
Ratio with respect to Non-Coating (CRD2-4 [14]): 1.1

B5: R8 (antibody, V domains shown)
VH: QVQLQESGPGLVKPSETLSLTCAVSGYSISSGYYWGWIRQPPGKGLEWIGSIYHSGSTYYNPSLKSRVTISVDTSKNQFSLKLSSVTAADTAVYYCARQHSFTRYYGYYYFDYWGQGTTVTVSS
VL: B2 VL with Q89L, F91S, S92D, R93S, F94I
Ratio with respect to Non-Coating (CRD1-3 [10]): 2
Ratio with respect to Non-Coating [2]: 1.9
Ratio with respect to Non-Coating (CRD3-4 [11]): 2.3
Ratio with respect to Non-Coating (CRD2-3 [13]): 2.2
Ratio with respect to Non-Coating (CRD2-4 [14]): 2
ELISA color development level (CRD1-3 [27]): 2.25
ELISA color development level [28]: 2.09
ELISA color development level (CRD3-4 [29]): 2.52
ELISA color development level (CRD2-3 [30]): 2.42
ELISA color development level (CRD2-4 [31]): 2.23

Next, values leading:

Ratio with respect to Non-Coating (CRD1-2 [9]): 0.8
Ratio with respect to Non-Coating (CRD1-3 [10]): 1.1
Ratio with respect to Non-Coating (CRD3-4 [11]): 1.3
Ratio with respect to Non-Coating (CRD1 [12]): 0.7
Ratio with respect to Non-Coating (CRD2-3 [13]): 1.2
Ratio with respect to Non-Coating (CRD2-4 [14]): 1
ELISA color development level (CRD1-2 [15]): 1.7
ELISA color development level (CRD1-3 [16]): 2.42
ELISA color development level (CRD3-4 [17]): 2.76
ELISA color development level (CRD1 [18]): 1.64
ELISA color development level (CRD2-3 [19]): 2.72
ELISA color development level (CRD2-4 [20]): 2.21
B3: R14 (antibody, V domains shown)
VH: B4 VH
VL: B2 VL with Q89L, F91V, S92Y, F94S

Ratio with respect to Non-Coating (CRD1-3 [10]): 7.3
ELISA color development level (CRD1-3 [32]): 0.473
B6: R1 (antibody, V domains shown)
VH: EVQLVQSGAEVKKPGASVKVSCKASGYTFTSYYTHWVRQAPGQGLEWMGIINPSGGSTSYAQKFQGRVTMTRDTSTSTVYMELSSLRSEDTAVYYCARGAPEYSSSSDYWGQGTMVTVSS
VL: QSALTQPASVSGSPGQSITISCTGTSSDVGGYNYVSWYQQHPGKAPKLMIYDVSNRPSGVSNRFSGSKSGNTASLTISGLQAEDEADYYCSSYTSSSTRWVFGGGTKLTVL
